# Results: paper PMC9205196
# B1: mSDC1: commercial glycosylated, mammalian expressed recombinant mouse SDC1 ectodomain (domain or fragment)
# chain: QIVAVNVPPEDQDGSGDDSDNFSGSGTGALPDTLSRQTPSTWKDVWLLTATPTAPEPTSSNTETAFTSVLPAGEKPEEGEPVLHVEAEPGFTARDKEKEVTTRPRETVQLPITQRASTVRVTTAQAAVTSHPHGGMQPGLHETSAPTAPGQPDHQPPRVEGGGTSVIKEVVEDGTANQLPAGEGSGEQDFTFETSGENTAVAAVEPGLRNQPPVDEGATGASQSLLDRKEVLG
# modifications: native GAG chains from the mammalian host (CS predominant over HS by the paper's disaccharide analysis)
# Biological target: Recombinant human FGF2 (fibroblast growth factor-2), biotinylated (human)
# Assay: AlphaScreen or HTRF
binder,measurement,value
B1,EC50,7 nM
